Columns and labels:
[1] = target: YFP^N-TaHSP90 (Triticum aestivum); assay: split reporter (BiFC, NanoBiT); BiFC in tobacco (Nicotiana benthamiana) protoplasts; YFP^N (pSY736) and YFP^C (pSY735) fusions co-expressed by the polyethylene glycol method; fluorescence monitored 24-48 hours after transformation; fluorescent and observed cells counted from ten fields of vision
[2] = target: YFP^N-TaNPSN11 (full-length TaNPSN11 fused to the N-terminal part of YFP) (Triticum aestivum (common wheat)); assay: as above
Sequence of YFP^N-TaNPSN11 (full-length TaNPSN11 fused to the N-terminal part of YFP) (Triticum aestivum (common wheat)) (main, as listed by the source): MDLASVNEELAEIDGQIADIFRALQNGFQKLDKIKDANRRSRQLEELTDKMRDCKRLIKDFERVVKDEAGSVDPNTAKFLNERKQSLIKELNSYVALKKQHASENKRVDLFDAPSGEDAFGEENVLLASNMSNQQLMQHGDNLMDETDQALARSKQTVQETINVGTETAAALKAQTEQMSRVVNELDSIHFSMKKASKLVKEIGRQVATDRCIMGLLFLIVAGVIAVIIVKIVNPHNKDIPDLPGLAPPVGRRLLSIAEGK

Row | ratio of fluorescent cells [1] | ratio of fluorescent cells [2] | Substance
1 | 0.25 | – | YFP^C-TaRAR1 (natural protein)
2 | – | 0.06 | YFP^C-TaSYP132 (full-length TaSYP132 fused to the C-terminal part of YFP) (natural protein)

Source: publication PMC4144766
